# Reference: US20110136733A1 (IPSEN PHARMA S A S, published 2011)
# Where no end group is shown, it is not given here. [ ]: non-standard residue; d: D form. The star is where a group is joined. Myristoyl = CCCCCCCCCCCCCC(=O)*; Ac6c = NC1(C(=O)O)CCCCC1; Nle = CCCC[C@H](N)C(=O)O; Orn = NCCC[C@H](N)C(=O)O; Ac5c = NC1(C(=O)O)CCCC1; Aib = CC(C)(N)C(=O)O
# Molecular target: T1, human recombinant GIP receptor (human, UniProt P48546 22-466)
# T1 construct: whole, on cells; Membranes of CHO-K1 cells expressing the receptor; also called hGIP receptor
# T1 sequence (looked up): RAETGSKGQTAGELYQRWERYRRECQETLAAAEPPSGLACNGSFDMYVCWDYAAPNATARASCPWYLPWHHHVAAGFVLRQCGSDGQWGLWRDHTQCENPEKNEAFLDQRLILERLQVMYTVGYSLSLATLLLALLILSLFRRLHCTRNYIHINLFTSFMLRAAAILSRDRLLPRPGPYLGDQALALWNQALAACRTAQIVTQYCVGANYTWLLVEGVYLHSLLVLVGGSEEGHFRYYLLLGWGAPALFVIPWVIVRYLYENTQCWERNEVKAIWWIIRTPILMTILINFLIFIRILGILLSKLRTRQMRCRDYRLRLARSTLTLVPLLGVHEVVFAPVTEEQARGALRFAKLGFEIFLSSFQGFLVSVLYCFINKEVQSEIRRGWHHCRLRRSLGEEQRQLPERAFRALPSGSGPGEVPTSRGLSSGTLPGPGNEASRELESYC
# Assay: [125I]GIP competition, membranes of CHO-K1 cells expressing human GIP receptor, same conditions as Table 2
row,Binder,Ki
1,YAPGTFISDYSIAMDKIHQQDFVNWLLAQKGKKNDWKHNITQ-OH [[Pro^3]hGIP(1-42)-OH],171 nM

# Molecular target: T1, human recombinant GIP receptor
# Assay: [125I]GIP competition, membranes of CHO-K1 cells expressing human GIP receptor
row,Binder,Ki
1,"YAEGTFISDYXIAMDKIHQQDFVNWLLAQKGKKNDWKHNITQH (D-Ala at 2; A5c at 11; C-terminal free acid, X stands for the non-natural residue) [(D-Ala^2, A5c^11, His^43)hGIP(1-43)-OH]",0.56 nM
2,"YGEGTFISDYXIAMDKIHQQDFVNWLLAQKGKKNDWKHNITQH (A5c at 11; C-terminal free acid) [(Gly^2, A5c^11, His^43)hGIP(1-43)-OH]",0.97 nM
3,"YXEGTFISDYSIXMDKIHQQDFVNWLLAQK (Aib at 2 and 13; C-terminal amide) [(Aib^2, 13)hGIP(1-30)-NH2]",0.33 nM
4,"Y[Aib]EGTF[Ac6c]SDYSIAMDKIHQQDFVNWLLAQKGKKNDWKHNITQQ-OH [(Aib^2, A6c^7, Gln^43)hGIP(1-43)-OH]",0.94 nM
5,"YXEGTFISDYXIAXDKIHQQDFVNWLLAQK (Aib at 2; A5c at 11; Nle at 14; C-terminal amide) [(Aib^2, A5c^11, Nle^14)hGIP(1-30)-NH2]",0.16 nM
6,"YXEGTFISDYSIAXDKIHQQDFVNWLLAQKGKKNDWKHNITQ (A5c at 2; Nle at 14; C-terminal free acid) [(A5c^2, Nle^14)hGIP(1-42)-OH]",15.9 nM
7,"YAXGTFISDYXIAXDKIHQQDFVNWLLAQKGKKNDWKHNITQ (Tic at 3; A5c at 11; A6c at 14; C-terminal free acid) [(Tic^3, A5c^11, A6c^14)hGIP(1-42)-OH]",754 nM
8,"YXEGTFISDYSIXXDKIHQQDFVNWLLAQKGKKNDWKHNITQ (Aib at 2 and 13; Nle at 14; C-terminal free acid) [(Aib^2, 13, Nle^14)hGIP(1-42)-OH]",0.05 nM
9,"YXEGTFXSDYSIAXDKIHQQDFVNWLLAQKGKKNDWKHNITQ (A5c at 2 and 7; A6c at 14; C-terminal free acid) [(A5c^2, 7, A6c^14)hGIP(1-42)-OH]",34.4 nM
10,"YXEGTFISDYSXAMDKIHQQDFVNWLLAQKGKKNDWKHNITQ (Aib at 2; A5c at 12; C-terminal free acid) [(Aib^2, A5c^12)hGIP(1-42)-OH]",1.65 nM
11,"YAEGTFISDYXIAXDKIHQQDFVNWLLAQKGKKNDWKHNIXQ (D-Ala at 2; A6c at 11, 14 and 41; C-terminal free acid, X stands for the non-natural residue) [(D-Ala^2, A6c^11, 14, 41)hGIP(1-42)-OH]",6.67 nM
12,"YXEGTFISDYSIAXDKIHQQDFVNWLLAQKGKKNDWKHNITQ (Aib at 2; A6c at 14; C-terminal free acid) [(Aib^2, A6c^14)hGIP(1-42)-OH]",0.07 nM
13,"YXEGTFXSDYSIAXDKIHQQDFVNWLLAQKGKKNDWKHNITQ (Aib at 2; A5c at 7; A6c at 14; C-terminal free acid) [(Aib^2, A5c^7, A6c^14)hGIP(1-42)-OH]",0.63 nM
14,"YAEGTFISDYXIAMDKIHQQDFVNWLLAQKGKKNDWKHNIXQ (D-Ala at 2; A5c at 11 and 41; C-terminal free acid, X stands for the non-natural residue) [(D-Ala^2, A5c^11, 41)hGIP(1-42)-OH]",0.36 nM
15,"YXEGTFXSDYSIAXDKIHQQDFVNWLLAQKGKKNDWKHNITQ (Aib at 2; A5c at 7 and 14; C-terminal free acid) [(Aib^2, A5c^7, 14)hGIP(1-42)-OH]",0.22 nM
16,"YXEGTFISDYXIAXDKIHQQDFVNWLLAQKGKKNDWKHNITQ (Aib at 2; A5c at 11; Nle at 14; C-terminal free acid) [(Aib^2, A5c^11, Nle^14)hGIP(1-42)-OH]",0.43 nM
17,"XAEGTFISDYSIXMDKIHQQDFVNWLLAQKGKKNDWKHNITQ (4Hppa (3-(4-hydroxyphenyl)propionic acid) at 1; Aib at 13; C-terminal free acid) [(4Hppa^1, Aib^13)hGIP(1-42)-OH]",2.25 nM
18,"YAPGTFISDYXIAXDKIHQQDFVNWLLAQKGKKNDWKHNITQ (A5c at 11; A6c at 14; C-terminal free acid) [(Pro^3, A5c^11, A6c^14)hGIP(1-42)-OH]",648 nM
19,"YXEGTFISDYXIAXDKIHQQDFVNWLLAQKGKKNDWKHNITQ (Aib at 2 and 11; Nle at 14; C-terminal free acid) [(Aib^2, 11, Nle^14)hGIP(1-42)-OH]",0.29 nM
20,"YAPGTFISDYSIAXDKIHQQDFVNWLLAQKGKKNDWKHNITQ (A6c at 14; C-terminal free acid) [(Pro^3, A6c^14)hGIP(1-42)-OH]",214 nM
21,"YXEGTFISDYSXAMDKIHQQDFVNWLLAQKGKKNDWKHNITQ (Aib at 2 and 12; C-terminal free acid) [(Aib^2, 12)hGIP(1-42)-OH]",4.98 nM
22,"YAXGTFISDYSIXXDKIHQQDFVNWLLAQKGKKNDWKHNITQ (hPro at 3; Aib at 13; Nle at 14; C-terminal free acid) [(hPro^3, Aib^13, Nle^14)hGIP(1-42)-OH]",330 nM
23,"YXEGTFISDYXIAMDKIHQQDFVNWLLAQKGKKNDWKHNITQ (Aib at 2; A5c at 11; C-terminal free acid) [(Aib^2, A5c^11)hGIP(1-42)-OH]",0.08 nM

row,Binder,Ki
1,"YAPGTFISDYSIXXDKIHQQDFVNWLLAQKGKKNDWKHNITQ (Aib at 13; Nle at 14; C-terminal free acid) [(Pro^3, Aib^13, Nle^14)hGIP(1-42)-OH]",667 nM
2,"YXEGTFISDYXIAXDKIHQQDFVNWLLAQKGKKNDWKHNITQ (Aib at 2; A5c at 11; A6c at 14; C-terminal free acid) [(Aib^2, A5c^11, A6c^14)hGIP(1-42)-OH]",0.18 nM
3,"YXEGTFISDYXIAXDKIHQQDFVNWLLAQKGKKNDWKHNITQ (Aib at 2 and 11; A6c at 14; C-terminal free acid) [(Aib^2, 11, A6c^14)hGIP(1-42)-OH]",0.73 nM
4,"YXEGTFXSDYSIAXDKIHQQDFVNWLLAQKGKKNDWKHNITQ (Aib at 2; A6c at 7 and 14; C-terminal free acid) [(Aib^2, A6c^7, 14)hGIP(1-42)-OH]",0.83 nM
5,"YAXGTFISDYSIXXDKIHQQDFVNWLLAQKGKKNDWKHNITQ (Dhp at 3; Aib at 13; Nle at 14; C-terminal free acid) [(Dhp^3, Aib^13, Nle^14)hGIP(1-42)-OH]",727 nM
6,"XXEGTFISDYXIAXDKIHQQDFVNWLLAQKGKKNDWKHNITQ (NMe-Tyr at 1; Aib at 2; A5c at 11; Nle at 14; C-terminal free acid) [(NMe-Tyr^1, Aib^2, A5c^11, Nle^14)hGIP(1-42)-OH]",0.19 nM
7,"YAXGTFISDYXIAMDKIHQQDFVNWLLAQKGKKNDWKHNITQ (Tic at 3; A5c at 11; C-terminal free acid) [(Tic^3, A5c^11)hGIP(1-42)-OH]",503 nM
8,"YAXGTFISDYSIAXDKIHQQDFVNWLLAQKGKKNDWKHNITQ (4Hyp at 3; A6c at 14; C-terminal free acid) [(4Hyp^3, A6c^14)hGIP(1-42)-OH]",910 nM
9,"YAEGTFISDYXIAMDKIHQQDFVNWLLAQKGKKNDWKHNXTQ (D-Ala at 2; A5c at 11 and 40; C-terminal free acid, X stands for the non-natural residue) [(D-Ala^2, A5c^11,40)hGIP(1-42)-OH]",0.59 nM
10,"YXEGTFISDYSIXXDKIHQQDFVNWLLAQK (Aib at 2 and 13; Nle at 14; C-terminal amide) [(Aib^2, 13, Nle^14)hGIP(1-30)-NH2]",0.09 nM
11,"Y[Aib]PGTFISDYSI[Aib][Nle]DKIHQQDFVNWLLAQK-NH2 [(Aib^2, 13, Pro^3, Nle^14)hGIP(1-30)-NH2]",0.07 nM
12,"YXEGTFXSDYSIAMDKIHQQDFVNWLLAQK (Aib at 2; A6c at 7; C-terminal amide) [(Aib^2, A6c^7)hGIP(1-30)-NH2]",0.03 nM
13,"YXEGTFISDYXIAXDKIHQQDFVNWLLAQK (Aib at 2; A5c at 11; A6c at 14; C-terminal amide) [(Aib^2, A5c^11, A6c^14)hGIP(1-30)-NH2]",0.15 nM
14,"Y[Aib]EG[Aib]FISDYSIAMDKIHQQDFVNWLLAQKGKKNDWKHNITQ-OH [(Aib^2, 5)hGIP(1-42)-OH]",4.08 nM
15,"Y[Aib]EG[Ac5c]FISDYSIAMDKIHQQDFVNWLLAQKGKKNDWKHNITQ-OH [(Aib^2, A5c^5)hGIP(1-42)-OH]",2.26 nM
16,"YXEGTFISDYXIAMDKIHQQDFVNWLLAQK (Aib at 2; A5c at 11; C-terminal amide) [(Aib^2, A5c^11)hGIP(1-30)-NH2]",0.09 nM
17,"Y[Aib]EGTF[Ac6c]SDYSIA[Nle]DKIHQQDFVNWLLAQKGKKNDWKHNITQ-OH [(Aib^2, A6c^7, Nle^14)hGIP(1-42)-OH]",0.45 nM
18,"[Orn](Myristoyl)AEGTF[Ac6c]SDYSIAMDKIHQQDFVNWLLAQKGKKNDWKHNITQ-OH [[Orn^1(N-C(O)-(CH2)12-CH3), A6c^7]hGIP(1-42)-OH]",21.5 nM
19,"Y[Aib]EGTF[Ac6c]SDYSIAMDKIHQQDFVNWLLAQKGKKNDWKHNITQ-OH [(Aib^2, A6c^7)hGIP(1-42)-OH]",0.3 nM
20,"Y[Aib]EGTF[Ac5c]SDYSIAMDKIHQQDFVNWLLAQKGKKNDWKHNITQ-OH [(Aib^2, A5c^7)hGIP(1-42)-OH]",0.41 nM
21,"Y[Aib]EGTF[Ac5c]SDYSIA[Nle]DKIHQQDFVNWLLAQKGKKNDWKHNITQ-OH [(Aib^2, A5c^7, Nle^14)hGIP(1-42)-OH]",0.69 nM
22,"YAPGTFISDYXIAMDKIHQQDFVNWLLAQK (A5c at 11; C-terminal amide) [(Pro^3, A5c^11)hGIP(1-30)-NH2]",65.8 nM
23,"YXEGTFXSDYSIAXDKIHQQDFVNWLLAQK (Aib at 2; A6c at 7 and 14; C-terminal amide) [(Aib^2, A6c^7, 14)hGIP(1-30)-NH2]",1.19 nM
